According to IntAct's records for PubMed 27927196:

B1: Lipopolysaccharide-induced tumor necrosis factor-alpha factor (Homo sapiens), Q99732 (parent)
chain: MSVPGPYQAATGPSSAPSAPPSYEETVAVNSYYPTPPAPMPGPTTGLVTGPDGKGMNPPSYYTQPAPIPNNNPITVQTVYVQHPITFLDRPIQMCCPSCNKMIVSQLSYNAGALTWLSCGSLCLLGCIAGCCFIPFCVDALQDVDHYCPNCRALLGTYKRL

Variants of: B1
Settings: with nedd4_human NEDD4, P46934
Sequence of nedd4_human NEDD4, P46934 (P46934 whole entry): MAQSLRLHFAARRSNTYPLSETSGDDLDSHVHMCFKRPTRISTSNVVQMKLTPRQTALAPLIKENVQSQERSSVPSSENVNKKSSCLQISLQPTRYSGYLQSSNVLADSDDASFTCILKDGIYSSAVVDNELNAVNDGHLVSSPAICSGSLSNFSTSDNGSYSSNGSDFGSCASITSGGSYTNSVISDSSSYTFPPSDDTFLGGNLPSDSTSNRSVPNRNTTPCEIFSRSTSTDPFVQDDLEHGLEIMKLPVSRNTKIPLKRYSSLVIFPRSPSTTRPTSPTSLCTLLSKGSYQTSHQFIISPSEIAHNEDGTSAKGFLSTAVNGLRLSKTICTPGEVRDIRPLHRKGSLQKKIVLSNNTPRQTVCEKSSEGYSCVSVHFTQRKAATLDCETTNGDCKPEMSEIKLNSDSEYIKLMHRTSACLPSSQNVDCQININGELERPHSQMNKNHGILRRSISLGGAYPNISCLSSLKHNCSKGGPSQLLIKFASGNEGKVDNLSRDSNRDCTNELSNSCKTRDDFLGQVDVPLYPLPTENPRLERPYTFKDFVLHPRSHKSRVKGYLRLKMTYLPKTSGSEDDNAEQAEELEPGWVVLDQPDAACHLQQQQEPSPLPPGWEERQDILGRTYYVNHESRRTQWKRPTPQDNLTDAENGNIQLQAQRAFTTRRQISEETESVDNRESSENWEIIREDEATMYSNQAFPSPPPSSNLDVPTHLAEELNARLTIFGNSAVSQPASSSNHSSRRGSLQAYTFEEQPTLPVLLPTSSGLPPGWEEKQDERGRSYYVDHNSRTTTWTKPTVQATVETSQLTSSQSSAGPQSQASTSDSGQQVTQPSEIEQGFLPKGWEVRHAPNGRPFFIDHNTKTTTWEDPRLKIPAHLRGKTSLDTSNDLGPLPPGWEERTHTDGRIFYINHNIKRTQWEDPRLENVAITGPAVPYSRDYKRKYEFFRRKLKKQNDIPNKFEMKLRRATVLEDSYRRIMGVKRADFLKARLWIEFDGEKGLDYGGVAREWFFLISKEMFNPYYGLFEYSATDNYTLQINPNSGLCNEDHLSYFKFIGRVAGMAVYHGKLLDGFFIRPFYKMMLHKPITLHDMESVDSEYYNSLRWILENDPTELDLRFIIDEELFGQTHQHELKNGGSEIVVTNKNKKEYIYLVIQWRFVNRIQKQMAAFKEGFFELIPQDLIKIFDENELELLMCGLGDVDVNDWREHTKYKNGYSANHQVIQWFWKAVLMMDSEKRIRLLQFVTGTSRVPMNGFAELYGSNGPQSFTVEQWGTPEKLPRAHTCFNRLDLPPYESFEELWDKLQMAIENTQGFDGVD

Variant	effect of a mutation on the interaction
Y23A	disrupting interaction strength
Y61A	with no effect
Y23A;Y61A	disrupting interaction strength
